Data: PMC6409644, “The Inhibitory Effect of Celangulin V on the ATP Hydrolytic Activity of the Complex of V-ATPase Subunits A and B in the Midgut of Mythimna separata” (Toxins, 2019)
pKi: −log10 of the molar value.

Key:
[1] = system: T1, Nc1ncnc2c1ncn2[C@@H]1O[C@H](COP(=O)(O)OP(=O)(O)OP(=O)(O)O)[C@@H](O)[C@H]1O; assay: ATP hydrolysis kinetics (inorganic phosphate release), Lineweaver–Burk Km; type: biochemical, Mythimna separata; details: Mg2+ ([…] MgCl2) ATP binding site of the AB complex (by docking: D416, D436, K437, K438 of subunit A and T439 of subunit B)
T1 construct: with V-ATPase subunit B

[2] = target: T2, V-ATPase subunit A (TSCA mutant) in complex with subunit B (Mythimna separata, UniProt A0A0U1XFD8+A0AAD8DTT7, A0AAD8DTT7:C254A/A0AAD8DTT7:T257S); assay: inhibition of ATP hydrolysis (inorganic phosphate release) by the purified complex; IC50 […], Ki calculated; CV was a suspension; type: biochemical
T2 construct: gene PYW07_012492; with V-ATPase subunit B
T2 sequence (A0AAD8DTT7 1-617, stated change not applied): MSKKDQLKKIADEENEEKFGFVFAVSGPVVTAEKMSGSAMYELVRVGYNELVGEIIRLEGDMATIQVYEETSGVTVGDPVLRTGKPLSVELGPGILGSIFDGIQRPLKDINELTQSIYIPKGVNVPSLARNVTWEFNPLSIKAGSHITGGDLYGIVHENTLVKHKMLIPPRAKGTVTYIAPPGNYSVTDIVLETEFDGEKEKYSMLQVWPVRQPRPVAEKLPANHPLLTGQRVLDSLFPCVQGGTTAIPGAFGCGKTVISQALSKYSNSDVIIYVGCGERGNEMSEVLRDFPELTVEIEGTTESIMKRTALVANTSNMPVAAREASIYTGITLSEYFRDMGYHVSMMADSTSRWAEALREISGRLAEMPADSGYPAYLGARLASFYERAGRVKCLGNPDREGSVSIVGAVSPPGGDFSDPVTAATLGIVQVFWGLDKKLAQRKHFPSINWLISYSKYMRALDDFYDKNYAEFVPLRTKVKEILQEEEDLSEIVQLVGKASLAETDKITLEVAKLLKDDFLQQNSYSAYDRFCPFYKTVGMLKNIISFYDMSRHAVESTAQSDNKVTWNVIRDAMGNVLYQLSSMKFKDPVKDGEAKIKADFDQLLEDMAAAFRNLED
T2 sequence (A0A0U1XFD8 1-497): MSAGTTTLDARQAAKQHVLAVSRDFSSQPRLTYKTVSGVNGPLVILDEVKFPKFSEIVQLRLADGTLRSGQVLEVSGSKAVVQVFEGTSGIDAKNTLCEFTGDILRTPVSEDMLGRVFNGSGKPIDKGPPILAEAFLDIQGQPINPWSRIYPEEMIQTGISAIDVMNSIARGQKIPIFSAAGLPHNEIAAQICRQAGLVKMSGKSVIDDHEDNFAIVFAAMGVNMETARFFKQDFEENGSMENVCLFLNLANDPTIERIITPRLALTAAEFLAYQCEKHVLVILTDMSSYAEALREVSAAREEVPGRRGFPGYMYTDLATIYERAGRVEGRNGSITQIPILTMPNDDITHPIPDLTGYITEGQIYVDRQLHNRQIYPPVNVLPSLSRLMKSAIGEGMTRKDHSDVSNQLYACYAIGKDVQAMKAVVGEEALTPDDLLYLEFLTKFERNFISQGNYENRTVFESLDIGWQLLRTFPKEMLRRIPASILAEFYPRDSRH

Compound | Km [1] | pKi [2]
V-ATPase subunit A (TSCA mutant) in complex with subunit B (Mythimna separata; A0AAD8DTT7:C254A/A0AAD8DTT7:T257S) | 268 µM | –
CC(=O)O[C@H]1C[C@](C)(O)C23OC(C)(C)[C@H]([C@H](OC(=O)C(C)C)[C@@H](OC(=O)c4ccccc4)[C@]2(COC(=O)C(C)C)[C@H]1OC(C)=O)[C@H]3O [CV, Celangulin V] | – | 5.00
